# Experimental data published in the supplement of paper PMC10567573.
# B1: CHCHD6 (parent)
# chain: MYKLSSEQFHEAASKMESTIKPRR
# B2: ZNF263 (parent)
# chain: EKPYKCPECGEIFAHSSNLLRHQR
# Variants of: B1
# Assay: protein stability index of a GFP-peptide fusion (GPS, HEK-293T) (PSI 1-6); higher = more stable
# Settings: c terminus: a fixed tail appended
# 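Further: lentivirally expressed fusions sorted by FACS into six bins by GFP to DsRed ratio, PSI derived from sequencing read proportions per bin multiplied by bin number.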
row,Variant,protein stability index
1,MYKLSSEQFHEAASKMEYTIKPRR [S18Y],3.42
2,MYKLSSEQFHEAASKMEVTIKPRR [S18V],3.77
3,MYKLSSEQFHEAASKMEGTIKPRR [S18G],3.7
4,MYKLSSEQFHEAASKMERTIKPRR [S18R],4.13
5,MYKLSSEQFHEAASKMEWTIKPRR [S18W],2.98
6,MYKLSSEQFHEAASKMESTIKIRR [P22I],3.53
7,MYKLSSEQFHEAASKMESTIKMRR [P22M],3.86
8,MYKLSSEQFHEAASKMESTIKHRR [P22H],3.91
9,MYKLSSEQFHEAASKMESTIKFRR [P22F],3
10,MYKLSSEQFHEAASKMESTIKGRR [P22G],3.56
11,MYKLSSEQFHEAASKMESTIKSRR [P22S],4.03
12,MYKLSSEQFHEAASKMESTIKRRR [P22R],3.83
13,MYKLESEQFHEAASKMESTIKPRR [S5E],4.24
14,MYKLVSEQFHEAASKMESTIKPRR [S5V],3.43
15,MYKLISEQFHEAASKMESTIKPRR [S5I],2.65
16,MYKLHSEQFHEAASKMESTIKPRR [S5H],4.14
17,MYKLSSEQFHEAASKQESTIKPRR [M16Q],4.47
18,MYKLSSEQFHEAASKFESTIKPRR [M16F],3.53
19,MYKLSSEQFHEAASKNESTIKPRR [M16N],4.17
20,MYKLSSEQFHEAASKKESTIKPRR [M16K],4.31
21,MYKLSSEQGHEAASKMESTIKPRR [F9G],4.21
22,MYKLSSEQWHEAASKMESTIKPRR [F9W],3.23

row,Variant,protein stability index
1,MYKLSSEQPHEAASKMESTIKPRR [F9P],4.68
2,MYKLSSEQFHNAASKMESTIKPRR [E11N],3.4
3,MYKLSSEQFHTAASKMESTIKPRR [E11T],3.75
4,MYKLSSEQFHGAASKMESTIKPRR [E11G],3.8
5,MYKLSSEQFHYAASKMESTIKPRR [E11Y],3.52
6,MYKLSSEQFHMAASKMESTIKPRR [E11M],3.28
7,MYKLSSEQFHEAATKMESTIKPRR [S14T],3.81
8,MYKLSSEQFHEAAAKMESTIKPRR [S14A],3.56
9,MYKLSSEQFHEAADKMESTIKPRR [S14D],3.61
10,MYKLSSEQFHEAASKMVSTIKPRR [E17V],3.27
11,MMKLSSEQFHEAASKMESTIKPRR [Y2M],4.45
12,MGKLSSEQFHEAASKMESTIKPRR [Y2G],4.48
13,MYKLSCEQFHEAASKMESTIKPRR [S6C],3.52
14,MYKLSSEQFVEAASKMESTIKPRR [H10V],3.78
15,MYKLSSEQFKEAASKMESTIKPRR [H10K],4
16,MYKLSSEQFYEAASKMESTIKPRR [H10Y],3.52
17,MYKLSSEQFHEAASKMESTIAPRR [K21A],3.49
18,MYKLSSEQFHEAASKMESTICPRR [K21C],4.22
19,MYKLSSEQFHEAASKMESTITPRR [K21T],3.31
20,MYKLSSEQFHEAASKMESTIRPRR [K21R],3.9
21,MYKLSSEQFHEAASKMESTYKPRR [I20Y],3.44
22,MYKLSSEQFHEAASKMESTRKPRR [I20R],3.97

row,Variant,protein stability index
1,MYKLSSEQFHEAASKMESTMKPRR [I20M],4.21
2,MYKLSSEQFHEAASKMESTWKPRR [I20W],3.07
3,MYKLSSEQFHEAASKMESTEKPRR [I20E],4.74
4,MYKLSSEQFHEAASKMESTGKPRR [I20G],4.3
5,MYKLSSEQFHEAASKMESTVKPRR [I20V],4.08
6,MYKLSSEAFHEAASKMESTIKPRR [Q8A],4.25
7,MYKLSSESFHEAASKMESTIKPRR [Q8S],3.74
8,MYKLSSEKFHEAASKMESTIKPRR [Q8K],3.84
9,MYKLSSECFHEAASKMESTIKPRR [Q8C],2.96
10,MYKLSSERFHEAASKMESTIKPRR [Q8R],3.86
11,MYKLSSEQFHEACSKMESTIKPRR [A13C],3.33
12,MYKLSSEQFHEAYSKMESTIKPRR [A13Y],3.36
13,MYKHSSEQFHEAASKMESTIKPRR [L4H],3.58
14,MYKISSEQFHEAASKMESTIKPRR [L4I],3.18
15,MYKLSSEQFHEAASPMESTIKPRR [K15P],3.93
16,MYKLSSEQFHEAASFMESTIKPRR [K15F],3.91
17,MYKLSSEQFHEAASSMESTIKPRR [K15S],4.04
18,MYKLSSEQFHEAASKMESTIKPRH [R24H],3.85
19,MYKLSSEQFHEAASKMESTIKPRY [R24Y],3.15
20,MYKLSSEQFHEAASKMESTIKPRD [R24D],4.2
21,MYKLSSEQFHEAASKMESTIKPRK [R24K],3.86
22,MYGLSSEQFHEAASKMESTIKPRR [K3G],4.46

row,Variant,protein stability index
1,EYKLSSEQFHEAASKMESTIKPRR [M1E],4.44
2,HYKLSSEQFHEAASKMESTIKPRR [M1H],4.18
3,KYKLSSEQFHEAASKMESTIKPRR [M1K],4.13
4,GYKLSSEQFHEAASKMESTIKPRR [M1G],4.53
5,YYKLSSEQFHEAASKMESTIKPRR [M1Y],3.56
6,DYKLSSEQFHEAASKMESTIKPRR [M1D],5.02
7,LYKLSSEQFHEAASKMESTIKPRR [M1L],3.06
8,MYKLSSEQFHEAASKMESHIKPRR [T19H],4.29
9,MYKLSSEQFHEAASKMESLIKPRR [T19L],3.67
10,MYKLSSEQFHEAASKMESWIKPRR [T19W],2.15
11,MYKLSSEQFHEQASKMESTIKPRR [A12Q],4.04
12,MYKLSSEQFHEEASKMESTIKPRR [A12E],4.56
13,MYKLSSEQFHEAASKMESTIKPCR [R23C],3.48
14,MYKLSSEQFHEAASKMESTIKPFR [R23F],3
15,MYKLSSEQFHEAASKMESTIKPER [R23E],4.14
16,MYKLSSEQFHEAASKMESTIKPGR [R23G],3.59
17,MYKLSSEQFHEAASKMESTIKPNR [R23N],3.4
18,MYKLSSKQFHEAASKMESTIKPRR [E7K],3.71
19,MYKLSSIQFHEAASKMESTIKPRR [E7I],3.1

# Variants of: B2
# Assay: as above
# Settings: c terminus: a fixed tail appended
row,Variant,protein stability index
1,IKPYKCPECGEIFAHSSNLLRHQR [E1I],2.33
2,MKPYKCPECGEIFAHSSNLLRHQR [E1M],2.37
3,CKPYKCPECGEIFAHSSNLLRHQR [E1C],1.85
4,SKPYKCPECGEIFAHSSNLLRHQR [E1S],2.44
5,TKPYKCPECGEIFAHSSNLLRHQR [E1T],2.65
6,PKPYKCPECGEIFAHSSNLLRHQR [E1P],2.2
7,RKPYKCPECGEIFAHSSNLLRHQR [E1R],2.9
8,KKPYKCPECGEIFAHSSNLLRHQR [E1K],1.83
9,DKPYKCPECGEIFAHSSNLLRHQR [E1D],2.94
